Data: paper PMC9090332, “Reconstitution of surface lipoprotein translocation through the Slam translocon” (eLife, 2022)

Target: T1, E. coli Skp with N-terminal 6xHis tag, purified (E. coli, UniProt P0AEU7 21-161)
T1 sequence (looked up): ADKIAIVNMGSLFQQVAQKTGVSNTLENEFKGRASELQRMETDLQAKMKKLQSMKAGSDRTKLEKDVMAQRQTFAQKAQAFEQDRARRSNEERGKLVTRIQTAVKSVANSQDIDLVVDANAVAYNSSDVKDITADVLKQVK
Experiment: cell-based or functional assay

B1: Moraxella catarrhalis transferrin binding protein B, C-terminal flag-tag (natural protein)
chain: CGGSGGSNPPAPTPIPNASGSGNTGNTGNAGGTDNTANAGNTGGASSGTGSANTPEPKYQDVPTDKNEKEQVSPIQEPAMGYGMALSKINLHNRQDTPLDEKNIITLDGKKQVAEGKKSPLPFSLDVENKLLDGYIAKMDKADKNAIRRRIESENKAKPLSEAELAEKIKEAVRKSYEFQQVMTSLENKIFHSNDGTTKATTRDLQYVDYGYYLANDANYLTVKTDKPKLWNSGPVGGVFYNGSTTAKELPTQDAVKYKGHWDFMTDVANKGNRFSEVKGTRQAGWWYGASSKDEYNRLLTDEKNKPDGYNGEYGHSSEFTVNFKEKKLTGGLFSNLQDSHKQKVTKTKRYDIDANIHGNRFRGSAIASDKEKDSETKHPFTSDAKDRLEGGFYGPKGEELAGKFLTDDNKLFGVFGAKQESKADKTEAILDAYALGAFNKNDANTFTPFTKKQLDNFGNAKKLVLGSTVINLVSTDATKNEFTEDKPKSATNKAGETLMVNDKVSVKTYGYGRNFEYLKFGELSVGGSHSVFLQGERTATTGDKAVPTEGKAKYLGNWVGYITGTGTGKSFNEAQDIADFDIDFKNKTVNGKLTTKGRTDPVFNITGEISGNGWTGKASTAKADAGGYNIDSNGTNKSIVIRDADVTGGFYGPNATEMGGSFTHNTNDSKASVVFGTKRQEEVKP
modifications: lipidated (processed by Lgt, Lsp, and Lnt)
protection of urea-unfolded purified TbpB from proteinase K with Skp (and LolA) added to empty liposomes, against SurA + Slam1 proteoliposomes (3.5% protection): ≤ 10%
